Data: article PMC4775219 (eLife, 2016)

Biological target: T1, Full-length H-Ras (SNAPtag-(GAGS)2x-MBP-H-Ras-DoubleHisTag) (human, UniProt P01112 1-189, SNAP-Cell 430 dye on the SNAP-tag)
T1 construct: H-Ras GTPase, human, full length; loaded with GDP or GTP as the experiment says; Held on Ni beads by the C-terminal double His tag; The nucleotide state (GDP or GTP) is a condition of the assay; also called wild-type Ras; WT Ras; source: E. coli BL21(T1R), purified (Ni-NTA, amylose, gel filtration Superdex S200); not shown: SNAP-tag, N-terminal, kept; DoubleHisTag (10xHis-(GAGS)3x-6xHis), …
Test: recruitment of fluorescent effector to Ras-loaded beads, spinning disk confocal microscopy; two competing effectors, each with its own fluorophore, in equivalent amounts on the same Ras-loaded beads; 2 uM RasGRF GEF step input, 5 mM GTP; GAP-free or with NF1-GAP
Conditions: both partners purified

B1: RBD from the A-Raf kinase (SNAPtag-(GAGS)2x-MBP-ARafRBD-StrepII) (domain or fragment, UniProt P10398 19-91, looked up)
chain: GTVKVYLPNKQRTVVTVRDGMSVYDSLDKALKVRGLNQDCCVVYRLIKGRKTVTAWDTAIAPLDGEELIVEVL
modifications: SNAP-Surface 488 or SNAP-Surface 549 dye on the SNAP-tag
notes: source: E. coli BL21(T1R), purified (Streptactin, amylose, gel filtration Superdex S75); not shown: SNAP-tag, N-terminal, kept
- output amplitude, fold lower than C-Raf RBD (GAP-free two-effector network): 20 times lower
